The results in this text go back to paper PMC4336380, “Promiscuous Binding of Karyopherinβ1 Modulates FG Nucleoporin Barrier Function and Expedites NTF2 Transport Kinetics” (Biophysical Journal, 2015).

The assay deals with T1, wild-type rat NTF2 (nuclear transport factor 2) (rat, UniProt P61972 1-127).
T1 construct: also called wild-type NTF2; source: E. coli BL21(DE3) CodonPlus RIL, purified (NiNTA agarose, gel filtration Superdex S-75)
As to the kind of experiment: SPR; Biacore T100, 25°C, PBS pH 7.2; Nsp1p fragment grafted on gold; multivalent kinetic analysis: discrete distribution of kinetic states (kon,i, koff,i), interaction maps averaged over ~10 sensorgrams. To be noted: both partners purified.

T1 sequence (P61972 whole entry): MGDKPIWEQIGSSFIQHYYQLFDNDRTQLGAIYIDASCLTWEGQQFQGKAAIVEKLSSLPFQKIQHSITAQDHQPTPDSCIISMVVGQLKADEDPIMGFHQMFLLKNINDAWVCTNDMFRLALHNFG

B1: Nsp1p-5FF (yeast Nsp1p FG fragment, residues 262-359; 1x FG, 4x FSFG) (domain or fragment)
chain: not shown
notes: Nsp1p, yeast, FG fragment residues 262-359 (1x FG, 4x FSFG), in a modified pET30a vector; Grafted to the gold SPR sensor through the added N-terminal Cys residues; The vector carries a TEV site in place of the thrombin site; no cleavage is described; source: E. coli BL21(DE3) CodonPlus RIL, purified (NiNTA agarose, Superdex S-75); not shown: Cys-Cys-Trp (after the initiator Met), N-terminal, …
For the molecule B1, the binding result is given as “binds”.
